From US20080233131A1 come the findings set out here.

Assay [1] deals with cynomolgus macaque CD4 on lymphocytes / PBMC (cynomolgus macaque (Macaca fascicularis)) (UniProt P79185). Briefly: flow cytometry of whole blood of TRX1-treated macaques; competitor SK3-RPE. (In general: A flow cytometer gives signals particle by particle.)
The target is the same in assay [2]. Briefly: flow cytometry of whole blood of TRX1-immunised macaques; competitor 7E14-RPE.

UniProt P79185, sequence (P79185 26-458 limits assumed): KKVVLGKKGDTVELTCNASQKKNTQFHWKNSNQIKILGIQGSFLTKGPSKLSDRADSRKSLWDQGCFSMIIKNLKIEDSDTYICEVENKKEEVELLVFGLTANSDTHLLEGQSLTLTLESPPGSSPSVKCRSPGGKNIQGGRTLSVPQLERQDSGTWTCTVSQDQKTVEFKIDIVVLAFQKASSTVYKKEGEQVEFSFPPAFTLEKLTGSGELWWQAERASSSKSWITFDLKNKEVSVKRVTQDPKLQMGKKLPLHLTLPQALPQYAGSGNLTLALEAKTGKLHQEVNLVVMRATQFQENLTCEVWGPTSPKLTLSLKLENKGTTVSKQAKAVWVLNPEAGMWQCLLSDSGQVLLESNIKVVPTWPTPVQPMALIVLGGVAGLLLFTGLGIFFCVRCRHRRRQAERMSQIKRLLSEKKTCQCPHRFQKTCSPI

As for “humanized anti-human CD4 monoclonal antibody TRX1”, the reduction in the MFI of SK3 staining in assay [1] amounted to 50%. In assay [2], this substance displayed a reduction in the MFI of 7E14 staining of 50%.
